Columns and labels:
[1] = target: TAMRA-BMAL1 mTAD WT probe (mouse); experiment: fluorescence polarisation
[2] = target: TAMRA-BMAL1 mTAD Δswitch probe (594-F619Y) (mouse); experiment: fluorescence polarisation
[3] = target: BMAL1 transactivation domain (TAD), residues 579-626 (mouse); experiment: ITC
[4] = target: Full-length mouse His-PERIOD2-flag (mouse, UniProt O54943 1-1257); experiment: pull-down
Sequence of Full-length mouse His-PERIOD2-flag (O54943 whole entry): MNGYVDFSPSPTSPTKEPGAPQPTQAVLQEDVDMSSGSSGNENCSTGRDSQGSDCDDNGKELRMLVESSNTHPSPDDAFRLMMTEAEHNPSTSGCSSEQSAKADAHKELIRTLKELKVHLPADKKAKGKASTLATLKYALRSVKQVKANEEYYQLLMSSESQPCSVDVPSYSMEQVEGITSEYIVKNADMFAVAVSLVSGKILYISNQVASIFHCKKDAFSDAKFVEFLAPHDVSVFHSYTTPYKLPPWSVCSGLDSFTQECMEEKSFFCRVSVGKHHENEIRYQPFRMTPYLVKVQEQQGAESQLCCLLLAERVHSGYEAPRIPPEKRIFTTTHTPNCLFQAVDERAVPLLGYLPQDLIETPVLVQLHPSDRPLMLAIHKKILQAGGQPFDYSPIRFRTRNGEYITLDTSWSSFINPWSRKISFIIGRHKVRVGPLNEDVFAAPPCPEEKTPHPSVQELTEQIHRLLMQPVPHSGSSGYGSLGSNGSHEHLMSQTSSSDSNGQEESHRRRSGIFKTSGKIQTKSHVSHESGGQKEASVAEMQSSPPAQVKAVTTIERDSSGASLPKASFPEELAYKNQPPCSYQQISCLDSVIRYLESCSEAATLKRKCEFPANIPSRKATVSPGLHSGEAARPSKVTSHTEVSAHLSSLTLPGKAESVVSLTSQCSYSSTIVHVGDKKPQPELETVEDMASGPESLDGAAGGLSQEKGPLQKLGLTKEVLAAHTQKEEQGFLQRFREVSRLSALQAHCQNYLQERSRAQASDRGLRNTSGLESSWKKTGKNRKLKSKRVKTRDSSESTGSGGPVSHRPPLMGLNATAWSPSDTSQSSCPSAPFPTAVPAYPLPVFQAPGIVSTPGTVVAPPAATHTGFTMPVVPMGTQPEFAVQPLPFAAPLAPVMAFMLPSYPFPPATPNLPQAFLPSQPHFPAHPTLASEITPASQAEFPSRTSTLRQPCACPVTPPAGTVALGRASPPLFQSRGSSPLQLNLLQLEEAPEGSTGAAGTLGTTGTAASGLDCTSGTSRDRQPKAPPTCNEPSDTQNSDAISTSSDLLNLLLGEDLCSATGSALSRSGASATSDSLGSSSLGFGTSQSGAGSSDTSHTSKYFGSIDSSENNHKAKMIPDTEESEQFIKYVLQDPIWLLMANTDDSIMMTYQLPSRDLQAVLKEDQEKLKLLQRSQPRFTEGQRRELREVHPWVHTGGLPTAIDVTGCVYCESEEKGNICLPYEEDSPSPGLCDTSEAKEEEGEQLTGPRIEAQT

B1: CHRONO minimal repressive domain (MRD), tag form not stated (domain or fragment)
chain: ELETSLNTQGCTTEGDLLFAQKCKELQGFIPPLTDLLNGLKMGRFERGLSSFQQSVAMDRIQRIVGVLQKPQMGERYLGTLLQVEGMLKTWFPQIAAQKSSLGGGKHQLTKHFPSHHSDSAASSPASPMEKMDQTQLGHLALKPK
IC50 [1]: 375 nM | Kd [1]: 386 nM | Kd [2]: 1540 nM

B2: His-CHRONO minimal repressive domain (MRD) (domain or fragment)
chain: ELETSLNTQGCTTEGDLLFAQKCKELQGFIPPLTDLLNGLKMGRFERGLSSFQQSVAMDRIQRIVGVLQKPQMGERYLGTLLQVEGMLKTWFPQIAAQKSSLGGGKHQLTKHFPSHHSDSAASSPASPMEKMDQTQLGHLALKPK
Kd [3]: 369 nM | stoichiometry N [3]: 1

B3: CK1δ kinase domain (residues 1-294) (enzyme, human, UniProt P48730 1-294, looked up)
chain: MELRVGNRYRLGRKIGSGSFGDIYLGTDIAAGEEVAIKLECVKTKHPQLHIESKIYKMMQGGVGIPTIRWCGAEGDYNVMVMELLGPSLEDLFNFCSRKFSLKTVLLLADQMISRIEYIHSKNFIHRDVKPDNFLMGLGKKGNLVYIIDFGLAKKYRDARTHQHIPYRENKNLTGTARYASINTHLGIEQSRRDDLESLGYVLMYFNLGSLPWQGLKAATKRQKYERISEKKMSTPIEVLCKGYPSEFATYLNFCRSLRFDDKPDYSYLRQLFRNLFHRQGFSYDYVFDWNMLK
binding result [4]: binds

— article doi:10.1101/2022.10.04.510902 (bioRxiv, 2022)
